B1: LV1050-Fc x 5C8var1-Fc (bispecific antibody, V domains shown)
V domain 1: EVQLVESGGGLVQPGGSLRLSCAASRFMISEYSMHWVRQAPGKGLEWVSTINPAGTTDYADSVKGRFTISRDNAKNTLYLQMNSLRAEDTAVYYCDGYGYRGQGTQVTVSS
V domain 2: EVQLLESGGGSVQPGGSLRLSCAASGRPFSNYAMSWFRQAPGKEREFVSAISWSGGSTSYADSVKGRFTISRDNSKNTLYLQMNSLRAEDTAVYYCAAQFSGADYGFGRLGIRGYEYDYWGQGTQVTVSS
notes: Knob-into-hole heterodimer of two VHH-Fc chains; also called 5C8var1-Fc x LV1050-Fc; lead bispecific antibody
B2: LV1044-5C8 (bispecific antibody)
chain: EVQLVESGGGLVQPGGSLTLSCAASRFMISEYSMHWVRQAPGKGLEWVSTINPAGTTDYAESVKGRFTISRDNAKNTLYLQMNSLKPEDTAVYYCDGYGYRGQGTQVTVSSGGGGSEVQLVESGGGLVQAGGSLRLSCAASGRPFSNYAMGWFRQAPGKEREFVAAISWSGGSTSYADSVKGRFTISRDNAKNTVYLQMNSPKPEDTAIYYCAAQFSGADYGFGRLGIRGYEYDYWGQGTQVTVSS
B3: LV1050-5C8var1 (bispecific antibody)
chain: EVQLVESGGGLVQPGGSLRLSCAASRFMISEYSMHWVRQAPGKGLEWVSTINPAGTTDYADSVKGRFTISRDNAKNTLYLQMNSLRAEDTAVYYCDGYGYRGQGTQVTVSSGGGGSEVQLLESGGGSVQPGGSLRLSCAASGRPFSNYAMSWFRQAPGKEREFVSAISWSGGSTSYADSVKGRFTISRDNSKNTLYLQMNSLRAEDTAVYYCAAQFSGADYGFGRLGIRGYEYDYWGQGTQVTVSSAAAEPEA

Assays:
[1] = target: T1, human PSMA on PSMA-positive prostate cancer cells (LNCaP, 22Rv1, VCaP, patient-derived tumor cells) (human, UniProt Q04609 1-750); assay: cell-based or functional assay
[2] = target: T1, human PSMA on PSMA-positive prostate …; assay: cell-based or functional assay; remark: listed apart in the source
[3] = target: recombinant human PSMA, biotinylated (hPSMA) (human, UniProt Q04609 44-750, biotinylated (site not stated)); assay: BLI, biotinylated hPSMA on streptavidin biosensors, antibody as analyte 3.125-200 nM; mean of n = 3, SD 1.24E-09
[4] = target: T1, human PSMA on PSMA-positive prostate …; assay: FACS on PSMA-positive LNCaP cells, detection with polyclonal anti-human IgG
Experimental: To test the binding of the molecule to PSMA, a concentration range of antibody was tested for binding to the PSMA positive prostate cancer cell line LNCaP and to the antigen negative cell line PC-3. Detection was performed with a polyclonal anti-human IgG antibody.

[5] = target: T1, human PSMA on PSMA-positive prostate …; assay: cell-based or functional assay; remark: listed apart in the source

T1 sequence (Q04609 whole entry): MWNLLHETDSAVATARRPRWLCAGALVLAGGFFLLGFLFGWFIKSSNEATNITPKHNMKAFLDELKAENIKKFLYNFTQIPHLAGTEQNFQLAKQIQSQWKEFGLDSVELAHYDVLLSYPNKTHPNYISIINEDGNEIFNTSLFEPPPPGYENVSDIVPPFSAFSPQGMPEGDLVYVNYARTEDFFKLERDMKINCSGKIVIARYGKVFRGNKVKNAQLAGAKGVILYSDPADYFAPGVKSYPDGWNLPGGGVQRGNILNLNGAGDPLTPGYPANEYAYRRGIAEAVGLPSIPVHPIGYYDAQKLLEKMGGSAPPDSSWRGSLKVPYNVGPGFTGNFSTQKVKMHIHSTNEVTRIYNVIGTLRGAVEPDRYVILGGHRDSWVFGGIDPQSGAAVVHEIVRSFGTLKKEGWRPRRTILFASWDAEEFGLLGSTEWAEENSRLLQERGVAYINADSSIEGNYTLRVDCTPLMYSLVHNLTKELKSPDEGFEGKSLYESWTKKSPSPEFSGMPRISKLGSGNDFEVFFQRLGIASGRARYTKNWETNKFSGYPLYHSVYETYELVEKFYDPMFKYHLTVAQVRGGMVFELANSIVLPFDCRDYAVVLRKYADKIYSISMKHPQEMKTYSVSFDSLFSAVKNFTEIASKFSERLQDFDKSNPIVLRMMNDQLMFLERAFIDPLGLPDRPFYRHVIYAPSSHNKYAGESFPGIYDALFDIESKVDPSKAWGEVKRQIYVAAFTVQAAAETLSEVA
recombinant human PSMA, biotinylated (hPSMA), sequence (Q04609 44-750 limits assumed): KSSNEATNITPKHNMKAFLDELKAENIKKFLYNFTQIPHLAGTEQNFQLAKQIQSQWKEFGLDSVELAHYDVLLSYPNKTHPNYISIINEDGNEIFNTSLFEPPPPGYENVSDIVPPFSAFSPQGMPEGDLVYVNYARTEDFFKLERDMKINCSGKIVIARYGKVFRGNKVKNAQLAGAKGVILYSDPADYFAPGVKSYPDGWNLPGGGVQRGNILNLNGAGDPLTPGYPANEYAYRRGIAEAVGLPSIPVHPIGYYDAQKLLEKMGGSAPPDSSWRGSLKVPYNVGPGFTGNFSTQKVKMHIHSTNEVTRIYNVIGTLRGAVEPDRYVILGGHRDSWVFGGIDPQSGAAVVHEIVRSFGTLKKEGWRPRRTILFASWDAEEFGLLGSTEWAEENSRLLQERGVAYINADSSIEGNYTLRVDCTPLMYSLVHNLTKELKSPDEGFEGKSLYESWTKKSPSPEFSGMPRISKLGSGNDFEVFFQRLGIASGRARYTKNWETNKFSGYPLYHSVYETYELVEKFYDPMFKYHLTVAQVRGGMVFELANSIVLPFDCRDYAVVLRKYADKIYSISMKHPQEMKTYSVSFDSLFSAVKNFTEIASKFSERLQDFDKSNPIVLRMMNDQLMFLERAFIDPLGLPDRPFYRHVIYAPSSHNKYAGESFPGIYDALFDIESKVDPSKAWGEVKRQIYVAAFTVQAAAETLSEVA

| Binder | Mean EC50, Vγ9Vδ2-T cell cytotoxicity of LNCaP cells, 24 h, E:T 1:1 [1] | Mean EC50, Vγ9Vδ2-T cell cytotoxicity of LNCaP cells, 24 h, E:T 1:10 [1] | EC50, Vγ9Vδ2 T cell mediated cytotoxicity of LNCaP cells, 24 h, E:T 1:1 [2] | EC50 for cytotoxicity, LNCaP target cells, 24 h, 7AAD in FACS, E:T 1:1 [2] | Kd [3] | EC50 [4] | Mean EC50, cytotoxicity after 24 hours (CytoTox-Glo), 22Rv1, E:T 1:1 [5] | Mean EC50, cytotoxicity after 24 hours (CytoTox-Glo), LNCaP, E:T 1:1 [5] | Mean EC50, cytotoxicity after 24 hours (CytoTox-Glo), VCaP, E:T 1:1 [5] | Mean EC50, degranulation (CD107a) after 4 hours, 22Rv1, E:T 1:1 [5] | Mean EC50, degranulation (CD107a) after 4 hours, LNCaP, E:T 1:1 [5] | Mean EC50, degranulation (CD107a) after 4 hours, VCaP, E:T 1:1 [5] |
| --- | --- | --- | --- | --- | --- | --- | --- | --- | --- | --- | --- | --- |
| B1 | 17 pM | 9.9 pM | 10.5 pM | 9.4 pM | 31.6 nM | 7.3 nM | 0.013 nM | 0.017 nM | 0.015 nM | 0.029 nM | 0.016 nM | 0.028 nM |
| B2 | – | – | 1.6 pM | 1.9 pM | – | – | – | – | – | – | – | – |
| B3 | – | – | 2.2 pM | 1.9 pM | – | – | – | – | – | – | – | – |

Source: patent US20230272110A1 (LAVA THERAPEUTICS N V, published 2023)
